Consider 18 variants from FireProtDB (doi:10.1016/j.jmb.2009.05.011).

First the molecules themselves.
B1: Dihydrolipoyllysine-residue succinyltransferase component of 2-oxoglutarate dehydrogenase complex, P0AFG6 (parent)
chain: MSSVDILVPDLPESVADATVATWHKKPGDAVVRDEVLVEIETDKVVLEVPASADGILDAVLEDEGTTVTSRQILGRLREGNSAGKETSAKSEEKASTPAQRQQASLEEQNNDALSPAIRRLLAEHNLDASAIKGTGVGGRLTREDVEKHLAKAPAKESAPAAAAPAAQPALAARSEKRVPMTRLRKRVAERLLEAKNSTAMLTTFNEVNMKPIMDLRKQYGEAFEKRHGIRLGFMSFYVKAVVEALKRYPEVNASIDGDDVVYHNYFDVSMAVSTPRGLVTPVLRDVDTLGMADIEKKIKELAVKGRDGKLTVEDLTGGNFTITNGGVFGSLMSTPIINPPQSAILGMHAIKDRPMAVNGQVEILPMMYLALSYDHRLIDGRESVGFLVTIKELLEDPTRLLLDV

In this series the parent is B1. The following applies: Escherichia coli (strain K12), pH 7, structure 1W4H, whole UniProt chain shown.
The mark [1] stands for this setting: Thermal, CD, Potassium phosphate 50 mM, KCl 200 mM.
Setting [2] is: 10 °C, GdnHCl, CD, 3-[morpholino]propanesulfonic acid 50 mM, NaCl 200 mM.
The mark [3] stands for this setting: 10 °C, GdnHCl, Fluorescence, 3-[morpholino]propanesulfonic acid 50 mM, NaCl 200 mM.

Values joined by “and” are separate entries in the source; they are usually repeats but may differ in a detail not shown here. Identical values can stand only once.

By Tm is commonly meant the temperature at the midpoint of the melting transition. With A117G, under setting [1], the midpoint of thermal melting (Tm) was determined as 49.4 °C, the “ddG of mutation (higher = less stable)” value came to 0.37 kcal/mol and the “unfolding enthalpy (van 't Hoff)” value came to 23 kcal/mol.

Regarding I118V, under setting [1], the Tm worked out at 53.8 °C, the “ddG of mutation (higher = less stable)” value was found to be 0.03 kcal/mol and the “unfolding enthalpy (van 't Hoff)” value turned out to be 26 kcal/mol.

For P116A, under setting [1], the melting temperature (Tm) turned out to be 59.1 °C, the “ddG of mutation (higher = less stable)” value was -0.38 kcal/mol and the “unfolding enthalpy (van 't Hoff)” value worked out at 24 kcal/mol.

Regarding V137G, under setting [2], the “ddG of mutation (higher = less stable)” value worked out at 0.98 kcal/mol, the denaturant m value amounted to 0.73 kcal/mol/M, the “denaturant midpoint (higher = more stable)” value (“denaturant midpoint” below) was 2.49 M and the unfolding free energy was found to be 1.82 kcal/mol. Besides, under setting [3], the denaturant m value was 0.47 kcal/mol/M and 0.24 kcal/mol/M; the unfolding free energy stood at 2.03 kcal/mol. Besides, under setting [1], the Tm turned out to be 43.1 °C, the “ddG of mutation (higher = less stable)” value was 0.84 kcal/mol and the “unfolding enthalpy (van 't Hoff)” value was 18 kcal/mol.

L141A: under setting [3], the denaturant m value stood at 0.48 kcal/mol/M and the unfolding free energy came out at 0.46 kcal/mol. Also, under setting [1], the Tm was 26.4 °C, the “ddG of mutation (higher = less stable)” value worked out at 2.12 kcal/mol and the “unfolding enthalpy (van 't Hoff)” value was found to be 10 kcal/mol.

As for L114W, under setting [2], the denaturant m value worked out at 0.67 kcal/mol/M, the “denaturant midpoint” value worked out at 3.15 M and the unfolding free energy was determined as 2.11 kcal/mol. The unfolding free energy under setting [3] is 2.22 kcal/mol.

Consider L150A, for which, under setting [2], the “ddG of mutation (higher = less stable)” value is 0.6 kcal/mol and 0.74 kcal/mol; the denaturant m value is 0.71 kcal/mol/M and 0.69 kcal/mol/M; the “denaturant midpoint” value was 3.02 M and 1.98 M; the unfolding free energy is 2.14 kcal/mol and 1.37 kcal/mol. In addition, the unfolding free energy under setting [3] was 2.13 kcal/mol and 1.46 kcal/mol. Also, under setting [1], the “ddG of mutation (higher = less stable)” value was 0.57 kcal/mol and 1.18 kcal/mol; the “unfolding enthalpy (van 't Hoff)” value was 23 kcal/mol and 18 kcal/mol.

Turning to A151G, under setting [1], the Tm came to 53.2 °C, the “ddG of mutation (higher = less stable)” value came out at 0.07 kcal/mol and the “unfolding enthalpy (van 't Hoff)” value came out at 21 kcal/mol.

Take H149A: under setting [1], the Tm was determined as 55 °C, the “ddG of mutation (higher = less stable)” value was -0.06 kcal/mol and the “unfolding enthalpy (van 't Hoff)” value is 22 kcal/mol.

For the variant H149G, under setting [2], the “ddG of mutation (higher = less stable)” value is 1.87 kcal/mol, the denaturant m value is 0.64 kcal/mol/M, the “denaturant midpoint” value was found to be 1.25 M and the unfolding free energy came out at 0.8 kcal/mol. Further, under setting [3], the denaturant m value is 0.45 kcal/mol/M and 0.21 kcal/mol/M; the unfolding free energy was 0.93 kcal/mol. For the same variant, under setting [1], the Tm is 33.9 °C, the “ddG of mutation (higher = less stable)” value was found to be 1.58 kcal/mol and the “unfolding enthalpy (van 't Hoff)” value is 8 kcal/mol.

Regarding T142S, under setting [3], the denaturant m value is 0.53 kcal/mol/M and 0.2 kcal/mol/M; the unfolding free energy turned out to be 1.45 kcal/mol.

As to H125W, under setting [2], the denaturant m value turned out to be 0.7 kcal/mol/M, the “denaturant midpoint” value is 3.96 M and the unfolding free energy came out at 2.77 kcal/mol. The unfolding free energy under setting [3] came out at 2.55 kcal/mol. Further, under setting [1], the midpoint of thermal melting (Tm) was 54.1 °C and the “unfolding enthalpy (van 't Hoff)” value is 25 kcal/mol.

With I132V, under setting [2], the “ddG of mutation (higher = less stable)” value was found to be 0.7 kcal/mol, the denaturant m value is 0.73 kcal/mol/M, the “denaturant midpoint” value turned out to be 2.88 M and the unfolding free energy amounted to 2.1 kcal/mol. The denaturant m value under setting [3] is 0.47 kcal/mol/M. In addition, under setting [1], the Tm was determined as 44.4 °C, the “ddG of mutation (higher = less stable)” value was 0.75 kcal/mol and the “unfolding enthalpy (van 't Hoff)” value is 22 kcal/mol.

Regarding T135S, under setting [1], the Tm was determined as 50.4 °C, the “ddG of mutation (higher = less stable)” value is 0.29 kcal/mol and the “unfolding enthalpy (van 't Hoff)” value was found to be 21 kcal/mol.

On to T135A, for which, under setting [2], the “ddG of mutation (higher = less stable)” value turned out to be 1.68 kcal/mol, the denaturant m value was 0.69 kcal/mol/M, the “denaturant midpoint” value worked out at 1.51 M and the unfolding free energy was found to be 1.04 kcal/mol. Also, under setting [3], the unfolding free energy amounted to 0.78 kcal/mol. In addition, under setting [1], the Tm worked out at 36.4 °C, the “ddG of mutation (higher = less stable)” value is 1.36 kcal/mol and the “unfolding enthalpy (van 't Hoff)” value was found to be 9 kcal/mol.

Regarding V146A, under setting [3], the denaturant m value is 0.48 kcal/mol/M and 0.16 kcal/mol/M; the unfolding free energy worked out at 0.47 kcal/mol. Besides, under setting [1], the Tm was 27.9 °C, the “ddG of mutation (higher = less stable)” value came to 2.02 kcal/mol and the “unfolding enthalpy (van 't Hoff)” value was found to be 9 kcal/mol.

Turning to A113G, under setting [1], the midpoint of thermal melting (Tm) amounted to 53.6 °C, the “ddG of mutation (higher = less stable)” value was 0.04 kcal/mol and the “unfolding enthalpy (van 't Hoff)” value turned out to be 23 kcal/mol.

Turning to D145N, the denaturant m value under setting [3] stood at 0.17 kcal/mol/M. Also, under setting [1], the Tm came out at 13.8 °C, the “ddG of mutation (higher = less stable)” value came to 3.1 kcal/mol and the “unfolding enthalpy (van 't Hoff)” value was 5 kcal/mol.
